# Measurements reported in patent US20260250410A1, “ANTIBODY AND USE THEREOF” (SICHUAN HUIYU PHARMACEUTICAL CO., LTD., priority 2022, published 2026).
# Columns and labels:
# PC3 cells = assay: Endocytosis capacity of murine monoclonal antibody (flow cytometry internalization); assay type: cell-based, human; conditions: antibody 1.5 μg/mL; for Internalization PC3 (%) 2 h: PC3, 2 h at 37° C.
# Protocol: (§1) The endocytosis capacity of the antibody was detected for 0.5 to 2 hours. MDA-MB-231 and PC3 cells were subjected to digestion with 5 mM EDTA, and plated at 4×10^4 cells/well after cell counting. After adding an Fc blocker (Human TruStain FcX™, Biolegend, 422302) and blocking at room temperature for 10 mins, a test antibody (1.5 μg/mL) was added, and the mixture was incubated at 4° C. for 30 mins, centrifuged, and washed twice with PBS+2% FBS, then the cells were divided into four equal portions (labeled as 0 h, 0.5 h, 1 h, 2 h), cells labeled as 0.5 h, 1 h, 2 h time points were added to a cell culture medium at 200 µL/well, and cultured at 37° C. for 0.5 h, 1 h, 2 h, respectively. Cells at 0 h point were centrifuged to remove supernatant, a secondary antibody (PE anti-human IgG Fc Antibody, Biolegend, 410708) was added, and the mixture was incubated at 4° C. for 30 mins, centrifuged, and washed twice with PBS+2% FBS, and detection was performed using a flow cytometer. After incubation of cells labeled as 0.5 h, 1 h, and 2 h points at 37° C. was completed, a secondary antibody was added (in the same steps as those at 0 h point), Geo-MFI of the signal under the same voltage was collected as detection signal at 0 h, and antibody internalization rate was calculated according to the following equation: Internalization (%)=(Geo-MFI (0 h)-Geo-MFI (0.5, 1, 2 h))/Geo-MFI (0 h)×100%.
# MDA-MB-231 cells = assay: as above; assay type: cell-based, human; conditions: antibody 1.5 μg/mL; for Internalization MDA-MB-231 (%) 2 h: MDA-MB-231, 2 h at 37° C.
# Protocol: as §1
Molecule,Internalization PC3 (%) 2 h (PC3 cells),Internalization MDA-MB-231 (%) 2 h (MDA-MB-231 cells),"Internalization PC3 (%) 0.5 h (PC3 cells; PC3, 0.5 h at 37° C.)","Internalization PC3 (%) 1 h (PC3 cells; PC3, 1 h at 37° C.)","Internalization MDA-MB-231 (%) 0.5 h (MDA-MB-231 cells; MDA-MB-231, 0.5 h at 37° C.)","Internalization MDA-MB-231 (%) 1 h (MDA-MB-231 cells; MDA-MB-231, 1 h at 37° C.)"
"1CP-068: anti-CDCP1 murine monoclonal antibody (hybridoma); VH SEQ ID NO: 270, VL SEQ ID NO: 320 (antibody, V domains shown, 1CP-068 heavy chain variable region; 1CP-068 light chain variable region) VH: EVQLKESGAELVRPGALVKLSCKASGFNIKDYYMYWVKQRPEQGLEWIGWIDPENGNTIYDPKLQGKARITADTSSNTAYLQLSSLTSEDTAVYYCAGRLYAMEYWGQGTTVTVSS VL: DVVMTQTPALMSASPGEKVTMTCSASSSVSYMYWYQQKPRSSPKPWIYLTSNLASGVPARFSGSGSGTSYSLTISSMEAEDAATYYCQQWSSDPFTFGGGTKLEIK",66.24%,49.47%,,,,
"1CP-062: anti-CDCP1 murine monoclonal antibody (hybridoma); VH SEQ ID NO: 264, VL SEQ ID NO: 314 (antibody, V domains shown, 1CP-062 heavy chain variable region; 1CP-062 light chain variable region) VH: EVKLVESGPGLVAPSQSLSITCTVSGFSLTTYGVHWVRQPPGKGLEWLVVIWSDGNTTYNSALKSRLSINKDNSKSQVFLKMNSLQTDDTAMYYCAKNYRNYDYAMDYWGQGTTVTVSS VL: DIVMTQTPASLAVSLGQRATISCRASESVDSYGNSFMHWYQQKPGQPPKLLIYRASNLESGIPARFSGSGSRTDFTLTINPVEADDVATYYCQQSNEDPYTFGGGTKLEIK",66.74%,59.61%,,,,
"1CP-064: anti-CDCP1 murine monoclonal antibody (hybridoma); VH SEQ ID NO: 267, VL SEQ ID NO: 317 (antibody, V domains shown, 1CP-064 heavy chain variable region; 1CP-064 light chain variable region) VH: EVKLVESGPGILQPSQTLSLTCSFSGFSLSTSGMGVGWIRQPSGKGLEWLAHIWWDDVKRYNPALKSRLTISKDTSSSQVFLKIASVDTADTATYYCARMGGKVPWFAYWGQGTTVTVSS VL: DVVMTQTPASLAVSLGQRATISCRASESVDSYGNSFMHWYQQKPGQPPKLLIYLASNLESGVPARFSGSGSRTDFTLTIDPVEADDAATYYCQQNNEDPWTFGGGTKLEIK",93.05%,93.43%,,,,
"1CP-065: anti-CDCP1 murine monoclonal antibody (hybridoma); VH SEQ ID NO: 269, VL SEQ ID NO: 319 (antibody, V domains shown, 1CP-065 heavy chain variable region; 1CP-065 light chain variable region) VH: EVTLKESGAELVRPGALVKLSCKASGFNIKDYYMHWVKQRPEQGLEWIGWIDPENDNTIYDPKFQGKASITADTSSNTAYLQLSSLTSEDTAVYYCARFYGSYYYAMDYWGQGTTVTVSS VL: DIVMTQSPKFMSTSVGDRVSITCKASQDVSTAVTWYQQKPGQSPKLLIYWASTRHTGVPDRFTGSGSGTDYTLTISSVQAEDLALYYCQQHYSTPYTFGGGTKLEIK",68.71%,52.89%,,,,
"12E6: anti-CDCP1 murine monoclonal antibody (hybridoma); VH SEQ ID NO: 255, VL SEQ ID NO: 305 (antibody, V domains shown, 12E6 heavy chain variable region; 12E6 light chain variable region) VH: EVQLKESGPGILQPSQTLSLTCSFSGFSLSTSGMGVGWIRQPSGKGLEWLAHIWWDDVKLYNPALKSRLTISKETSNNQVFLKIASVDAADTATYYCARIDHGYGSNYWDFDVWGAGTTVTVSS VL: DIVMTQAAPSVPVTPGGSVSISCRSTKSLLHSDGKTYLYWFLQRPGQSPQLLIYRMSNLASGVPDRFSGSGSGTAFTLRISRVEAEDVGVYYCMQHLEYPFTFGSGTKLEIK",7.99%,27.65%,0.00%,0.00%,10.62%,7.08%
"1CP-067: anti-CDCP1 murine monoclonal antibody (hybridoma); VH SEQ ID NO: 265, VL SEQ ID NO: 315 (antibody, V domains shown, 1CP-067 heavy chain variable region; 1CP-067 light chain variable region) VH: EVQLKESGGGLVKPGGSLKLSCTASGFTFSVYGMSWVRQTPEKRLEWVATLSGGSNYTYYSDSVKGRFTISRDTGKNNLYLQMSSLSSDDTALYYCATEDGLIGTWGDYWGQGTTVTVSS VL: DIVMTQAAFSNPVTLGTSASISCRSTKSLLHSNGITYLYWFLQKPGQSPQLLIYQMSNLASGVPDRFSSSGSGTDFTLRISRVEAEDVGVYYCAQNLELPFTFGGGTKLEIK",72.66%,69.09%,,,,
"1CP-069: anti-CDCP1 murine monoclonal antibody (hybridoma); VH SEQ ID NO: 266, VL SEQ ID NO: 316 (antibody, V domains shown, 1CP-069 heavy chain variable region; 1CP-069 light chain variable region) VH: EVQLQQSGGGLVKPGGSLKLSCTASGFTFSVYGMSWVRQTPEKRLEWVATLSGGDNYTYYTDSVKGRFTISRDTAKNNLYLQMSSLRSEDTALYFCATEDGLIGTWGDYWGQGTTVTVSS VL: DIVMTQAAFSNPVTLGTSASISCRSTKSLLHSNGITYLYWYLQKPGQSPQLLIYQMSNLASGVPDRFSSSGSGTDFTLRISRVEAEDVGVYYCAQNLELPFTFGGGTKLEIK",73.92%,73.58%,,,,
"1CP-066: anti-CDCP1 murine monoclonal antibody (hybridoma); VH SEQ ID NO: 268, VL SEQ ID NO: 318 (antibody, V domains shown, 1CP-066 heavy chain variable region; 1CP-066 light chain variable region) VH: EVTLKESGPELKKPGETVKISCKASGYAFTKYGMNWVKQAPGKDLKFMGWINTYTGEATYADDFKGRFDFSLEASASTAFLRINNLKNEDTATYFCSRGDDYGTGGYVLFYWGQGTTVTVSS VL: DIVMTQAAASLSVTVGETVTITCRASENIYNNLAWYQQQQGKSPQLLVYAATNLADGVPSRFSGSGSGTHYSLKINSLQSEDFGFYYCQHFWGTPPTFGGGTKLEIK",33.21%,55.57%,,,,
